Biological target: T1, CD47 on cells (HCC827 tumor cells; red blood cells from healthy people) (human, UniProt Q08722 19-323)
T1 construct: whole, on cells; Endogenous CD47 on human cells
Experiment: flow cytometry on mixed HCC827 cells and red blood cells
Description: HCC827 tumor cells express PD-L1 and CD47, but red blood cells (RBCs) express only CD47. HCC827 cells and RBCs were mixed together, and flow cytometry (FCM) was used to detect whether the heterodimer was selective for the binding to the two cells in the mixed cells.
The specific implementation process of this method is as follows. […] Flow tubes were incubated on ice for 30 minutes. The cells were washed twice with PBS containing 2% FBS. Then the pellets were resuspended in 200 μL of cold PBS containing 2% FBS and FITC-labeled anti-human IgG antibody diluted 1:1000 (Beijing Zhongshan Golden Bridge, Catalog number ZF0306), incubated on ice for 30 minutes in the dark. The cells were washed twice with PBS containing 2% FBS, then resuspended in 500 μL of cold PBS. The cell suspension obtained was detected and analyzed on a flow cytometer (BD, FACS Calibur), and the respective fluorescence intensities of the two cells in the mixed cells were read.

T1 sequence (Q08722 19-323): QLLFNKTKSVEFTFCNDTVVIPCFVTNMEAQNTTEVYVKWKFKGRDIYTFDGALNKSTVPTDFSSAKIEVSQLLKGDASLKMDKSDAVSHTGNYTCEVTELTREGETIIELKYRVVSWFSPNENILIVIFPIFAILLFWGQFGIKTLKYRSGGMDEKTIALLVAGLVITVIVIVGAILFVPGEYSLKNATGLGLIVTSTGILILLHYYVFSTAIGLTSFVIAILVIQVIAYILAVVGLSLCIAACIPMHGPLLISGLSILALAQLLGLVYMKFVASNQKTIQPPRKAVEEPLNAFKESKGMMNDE

binding result: binds
B1: CD47 monoclonal antibody (heavy and light chain variable region sequences of the humanized sequences z11 of the antibody CD47-18-5 and the constant region … (antibody, V domains shown)
VH: QVQLVQSGAEVKKPGSSVKVSCKASGFNIEDIYMHWVRQAPGQGLEWMGRIDPANDNTKYGPKLQGRVTITADTSTNTAYMELSSLRSEDTAVYYCVRRIPTDIMDYWGQGTTVTVSS
VL: DIQMTQSPSSLSASVGDRVTITCKASQNVRTSIAWYQQKPGKAPKTLIYLASNRHTGVPSRFSGSGSGTEFTLTISNLQPEDFATYYCLQHWNYPFTFGQGTKLEIK
notes: also called anti-CD47 monoclonal antibody

From US20240052037A1 (BEIJING HANMI PHARMACEUTICAL, published 2024)
